One block for each binder: values may come before it.
What was measured:
negative stain EM = molecular target: the molecule itself; test: negative stain EM
full-length human CHMP7 = molecular target: T1, full-length human CHMP7 (human, UniProt Q8WUX9 1-453); test: cross-linking
T1 sequence (looked up): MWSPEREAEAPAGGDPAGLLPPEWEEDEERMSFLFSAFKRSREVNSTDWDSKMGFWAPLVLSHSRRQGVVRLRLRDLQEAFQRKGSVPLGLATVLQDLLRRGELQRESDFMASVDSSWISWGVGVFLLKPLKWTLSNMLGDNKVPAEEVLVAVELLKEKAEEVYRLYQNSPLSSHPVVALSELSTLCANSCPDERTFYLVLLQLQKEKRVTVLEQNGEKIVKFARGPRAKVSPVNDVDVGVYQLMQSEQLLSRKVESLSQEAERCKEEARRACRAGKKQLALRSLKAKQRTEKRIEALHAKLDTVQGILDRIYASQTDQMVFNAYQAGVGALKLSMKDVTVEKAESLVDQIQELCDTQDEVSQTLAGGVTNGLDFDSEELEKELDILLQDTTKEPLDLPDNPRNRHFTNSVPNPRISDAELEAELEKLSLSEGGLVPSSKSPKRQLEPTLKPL

[1] = molecular target: T2, barrier-to-autointegration factor (BAF) (human, UniProt O75531 1-89); test: SEC
T2 sequence (looked up): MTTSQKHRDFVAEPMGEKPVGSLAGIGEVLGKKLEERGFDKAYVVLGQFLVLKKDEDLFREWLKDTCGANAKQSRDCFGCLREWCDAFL

co-sedimentation = molecular target: the molecule itself; test: co-sedimentation

B1: CHMP7_(229-453) (domain or fragment, human, UniProt Q8WUX9 229-453, looked up)
chain: AKVSPVNDVDVGVYQLMQSEQLLSRKVESLSQEAERCKEEARRACRAGKKQLALRSLKAKQRTEKRIEALHAKLDTVQGILDRIYASQTDQMVFNAYQAGVGALKLSMKDVTVEKAESLVDQIQELCDTQDEVSQTLAGGVTNGLDFDSEELEKELDILLQDTTKEPLDLPDNPRNRHFTNSVPNPRISDAELEAELEKLSLSEGGLVPSSKSPKRQLEPTLKPL
binding result (negative stain EM): binds

binding result (full-length human CHMP7): binds
B2: His6-SUMO-LEM2_(395-503) (domain or fragment, human, UniProt Q8NC56 395-503, looked up)
chain: ILLKYRWRKLEEEEQAMYEMVKKIIDVVQDHYVDWEQDMERYPYVGILHVRDSLIPPQSRRRMKRVWDRAVEFLASNESRIQTESHRVAGEDMLVWRWTKPSSFSDSER

binding result [1]: binds
B3: LEM2_(1-72) (domain or fragment, human, UniProt Q8NC56 1-72, looked up)
chain: MAGLSDLELRRELQALGFQPGPITDTTRDVYRNKLRRLRGEARLRDEERLREEARPRGEERLREEARLREDA

B4: CHMP7_(R270E + I312E) (natural protein, human, UniProt Q8WUX9 1-453, looked up)
chain: MWSPEREAEAPAGGDPAGLLPPEWEEDEERMSFLFSAFKRSREVNSTDWDSKMGFWAPLVLSHSRRQGVVRLRLRDLQEAFQRKGSVPLGLATVLQDLLRRGELQRESDFMASVDSSWISWGVGVFLLKPLKWTLSNMLGDNKVPAEEVLVAVELLKEKAEEVYRLYQNSPLSSHPVVALSELSTLCANSCPDERTFYLVLLQLQKEKRVTVLEQNGEKIVKFARGPRAKVSPVNDVDVGVYQLMQSEQLLSRKVESLSQEAERCKEEAERACRAGKKQLALRSLKAKQRTEKRIEALHAKLDTVQGILDREYASQTDQMVFNAYQAGVGALKLSMKDVTVEKAESLVDQIQELCDTQDEVSQTLAGGVTNGLDFDSEELEKELDILLQDTTKEPLDLPDNPRNRHFTNSVPNPRISDAELEAELEKLSLSEGGLVPSSKSPKRQLEPTLKPL
binding result (co-sedimentation): binds

B5: CHMP7_(R270E + V339D) (natural protein, human, UniProt Q8WUX9 1-453, looked up)
chain: MWSPEREAEAPAGGDPAGLLPPEWEEDEERMSFLFSAFKRSREVNSTDWDSKMGFWAPLVLSHSRRQGVVRLRLRDLQEAFQRKGSVPLGLATVLQDLLRRGELQRESDFMASVDSSWISWGVGVFLLKPLKWTLSNMLGDNKVPAEEVLVAVELLKEKAEEVYRLYQNSPLSSHPVVALSELSTLCANSCPDERTFYLVLLQLQKEKRVTVLEQNGEKIVKFARGPRAKVSPVNDVDVGVYQLMQSEQLLSRKVESLSQEAERCKEEAERACRAGKKQLALRSLKAKQRTEKRIEALHAKLDTVQGILDRIYASQTDQMVFNAYQAGVGALKLSMKDDTVEKAESLVDQIQELCDTQDEVSQTLAGGVTNGLDFDSEELEKELDILLQDTTKEPLDLPDNPRNRHFTNSVPNPRISDAELEAELEKLSLSEGGLVPSSKSPKRQLEPTLKPL
binding result (co-sedimentation): binds

Source: paper doi:10.1101/577460 (bioRxiv, 2019)
